{
  "source": "patent US20260199524",
  "key": {"Histone H4": {"molecular_target": "Histone H4 (UniProt P62805)"}, "Histone H3.3": {"molecular_target": "Histone H3.3 (UniProt P84243)"}, "Histone H3.1": {"molecular_target": "Histone H3.1 (UniProt P68431)"}},
  "data": [
    {"substance": "wild type SIRT6 polypeptide (sirtuin 6)", "values": [
      {"measurement": "histone acetylation PTM profile by LC-MS/MS in 3T3-L1 adipocytes", "setting": "Histone H4", "value": "Overexpression of SIR6 wt or SIRT6cent in 3T3-L1 led to changes in the acetylation profiles of histones H3.1, H3.2 and H4"},
      {"measurement": "histone acetylation/methylation PTM profile by LC-MS/MS in 3T3-L1 adipocytes", "setting": "Histone H3.3", "value": "significant difference between AdiWT and AdiCent at the levels of lysines (K) ... K27, K36 and K37 in H3.3"},
      {"measurement": "histone acetylation/methylation PTM profile by LC-MS/MS in 3T3-L1 adipocytes", "setting": "Histone H3.1", "value": "Overexpression of SIR6 wt or SIRT6cent in 3T3-L1 led to changes in the acetylation profiles of histones H3.1, H3.2 and H4"}
    ]}
  ]
}
